According to paper PMC2676423 (Molecular immunology, 2009):
“And” between values parts separate entries of the source, which are not always exact repeats. Equal entries are not always repeated.

B1: Fc-TNC-mCD134L (Fc fusion, chicken | mouse)
chain: RSPQPQPKPQPKPEPEGSLHACGCAAAPDIKDLLSRLEELEGLVSSLREQGTGGGSGGRGLQSSSPAKDPPIQRLRGAVTRCEDGQLFISSYKNEYQTMEVQNNSVVIKCDGLYIIYLKGSFFQEVKIDLHFREDHNPISIPMLNDGRRIVFTVVASLAFKDKVYLTVNAPDTLCEHLQINDGELIVVQLTPGYCAPEGSYHSTVNQVPL
B2: Fc-TNC-hCD134L (Fc fusion, chicken | human)
chain: RSPQPQPKPQPKPEPEGSLHACGCAAAPDIKDLLSRLEELEGLVSSLREQGTGGGSGGRGLQVSHRYPRIQSIKVQFTEYKKEKGFILTSQKEDEIMKVQNNSVIINCDGFYLISLKGYFSQEVNISLHYQKDEEPLFQLKKVRSVNSLMVASLTYKDKVYLNVTTDNTSLDDFHVNGGELILIHQNPGEFCVL

Key:
[1] = molecular target: feline CD134 (OX40) expressed on MCC cells (feline); test: flow cytometry on cells
[2] = molecular target: native, endogenously expressed feline CD134 on MYA-1 T cells (feline (endogenous in MYA-1)); test: flow cytometry on cells
[3] = molecular target: Fc-TNC-fCD134L (chicken | feline) (UniProt P10039); test: non-reducing SDS-PAGE with immunoblot
[4] = molecular target: human CD134 (OX40) expressed on MCC cells (human) (UniProt P43489); test: flow cytometry on cells
[5] = molecular target: the molecule itself; test: non-reducing SDS-PAGE with immunoblot

Chain of human CD134 (OX40) expressed on MCC cells (human) (P43489 29-277): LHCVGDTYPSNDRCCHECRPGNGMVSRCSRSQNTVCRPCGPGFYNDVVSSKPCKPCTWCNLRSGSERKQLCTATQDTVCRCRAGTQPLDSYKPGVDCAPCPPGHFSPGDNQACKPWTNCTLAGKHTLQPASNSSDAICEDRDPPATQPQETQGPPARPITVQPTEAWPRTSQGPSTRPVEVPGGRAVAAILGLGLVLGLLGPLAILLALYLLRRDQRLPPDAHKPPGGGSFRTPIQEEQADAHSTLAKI

Molecule	mean fluorescence intensity (MFI) [1]	percent of cells positive [1]	mean fluorescence intensity (MFI) [2]	percent of cells positive [2]	stoichiometry N [3]	mean fluorescence intensity (MFI) [4]	percent of cells positive [4]	stoichiometry N [5]
FLAG-TNC-fCD134L (from UniProt P10039 110-139) (ligand)	5	66.2%	3	44.9%	–	–	–	–
FLAG-mCD134L (FLAG-tagged murine CD134L) (from UniProt P43488 51-198) (ligand)	309	99.7%	12	86.5%	–	–	–	–
Fc-TNC-fCD134L (from UniProt P10039 110-139) (Fc fusion)	221	99.8%	14	82.4%	6	9.9	45.5%	–
Fc-TNC-mCD134L (from UniProt P10039 110-139; P43488 51-198) (Fc fusion)	300	99.8%	7	78.2%	–	–	–	–
B1	–	–	–	–	–	–	–	6
B2	–	–	–	–	–	–	–	2 and 6
